In patent US20250115669A1, “FGFR1/KLB Targeting Agonistic Antigen-Binding Proteins and Conjugates Thereof with GLP-1R Agonistic Peptides” (SANOFI, priority 2020, published 2025):
Where two headings read alike, the source gives them in different places.

Assays:
[1] = Capillary gel electrophoresis (cGE); type: physicochemical
Method: Capillary Gel Electrophoresis (cGE) Purity and size heterogeneity of the samples was determined by capillary gel electrophoresis (cGE) using a CES18000 instrument (SCIEX) equipped with a pre-assembled fused silica capillary (50 μm×300 mm, SCIEX). Protein samples at 1 mg/ml were prepared using the IgG purity heterogeneity Kit (SCIEX) under non-reducing conditions according to the manufacturer's specifications. Samples were electrophoretically separated for 35 minutes at 25° C. and the absorbance at 220 nm was recorded by a photo diode array (PDA) detector. The data were analyzed using 32 Karat Software (SCIEX).

human beta-Klotho = biological target: T1, human beta-Klotho (Homo sapiens, UniProt Q86Z14); experiment: SPR binding affinity and kinetics to human beta-Klotho (Biacore 8K, anti-human Fc capture)
T1 sequence (Q86Z14 1-1044): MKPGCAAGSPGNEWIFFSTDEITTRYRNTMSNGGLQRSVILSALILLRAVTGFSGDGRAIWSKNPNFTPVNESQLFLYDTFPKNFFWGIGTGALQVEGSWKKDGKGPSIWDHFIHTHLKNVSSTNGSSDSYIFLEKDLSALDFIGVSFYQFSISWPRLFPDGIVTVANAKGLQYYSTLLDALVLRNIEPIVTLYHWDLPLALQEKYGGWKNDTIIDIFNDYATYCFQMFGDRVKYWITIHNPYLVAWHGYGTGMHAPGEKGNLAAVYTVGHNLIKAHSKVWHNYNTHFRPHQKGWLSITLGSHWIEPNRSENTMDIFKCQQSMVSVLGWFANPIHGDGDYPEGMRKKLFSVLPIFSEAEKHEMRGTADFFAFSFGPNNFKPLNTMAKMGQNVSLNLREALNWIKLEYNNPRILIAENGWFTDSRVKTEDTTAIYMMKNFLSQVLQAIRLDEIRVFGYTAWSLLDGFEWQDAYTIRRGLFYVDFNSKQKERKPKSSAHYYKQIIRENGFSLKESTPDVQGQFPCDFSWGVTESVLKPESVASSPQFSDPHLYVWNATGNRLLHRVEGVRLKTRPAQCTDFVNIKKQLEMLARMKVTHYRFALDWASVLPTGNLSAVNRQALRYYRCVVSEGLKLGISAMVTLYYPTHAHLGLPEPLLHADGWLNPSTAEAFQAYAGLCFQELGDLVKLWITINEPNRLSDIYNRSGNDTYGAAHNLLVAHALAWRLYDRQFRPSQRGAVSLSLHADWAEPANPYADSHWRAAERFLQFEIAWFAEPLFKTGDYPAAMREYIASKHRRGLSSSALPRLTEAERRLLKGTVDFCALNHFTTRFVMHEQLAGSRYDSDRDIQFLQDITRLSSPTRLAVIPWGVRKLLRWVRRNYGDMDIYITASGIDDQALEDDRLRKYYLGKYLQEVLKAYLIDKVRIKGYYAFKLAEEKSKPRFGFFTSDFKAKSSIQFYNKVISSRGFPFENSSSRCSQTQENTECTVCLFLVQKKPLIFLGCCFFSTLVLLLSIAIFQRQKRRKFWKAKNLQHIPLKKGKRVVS
Method: Binding affinity and kinetics were measured on a Biacore 8K instrument (GE Healthcare). For the affinity capture of the diluted mAb sample, an anti-human Fc antibody (human antibody capture kit, GE Healthcare) was immobilized on all eight channels of a series S CM5 sensor chip (GE Healthcare) to approximately 10.000 RU. The anti-beta-Klotho antibodies were diluted into HBS-EP+ assay buffer (GE Healthcare) to 0.04 μg/mL. The antibodies were injected in the sample compartment, whereas the reference compartment was used without captured antibody. […] For the antigen inject the flow rate was adjusted to 60 μL/min with an association time of 180 sec and a dissociation time of 1800 sec. The maximum binding signal of beta-Klotho was in the range of 30 RU. At the end of each cycle an inject of regeneration solution, supplied with human antibody capture kit (GE Healthcare), supplemented with 10% non-specific binding reducer (GE Healthcare), for 1 min at 30 μL/min to remove antibody and antigen was performed. Binding kinetics data were evaluated with a 1:1 binding model using the Biacore 8K Evaluation Software version 1.1.1.7442 (GE Healthcare).
For interaction analysis with human beta-klotho, mAbs were captured via an anti-human Fc antibody immobilized on a series S CM5 sensor chip (human antibody capture kit, GE Healthcare). […] Binding kinetics data were evaluated with a 1:1 binding model using the Biacore 8K Evaluation Software version 1.1.1.7442 (GE Healthcare). For interaction analysis with Cynomolgus monkey beta-klotho, mAbs were captured via an anti-human Fc antibody immobilized on a series S CM5 sensor chip (human antibody capture kit, GE Healthcare). […] Binding kinetics data were evaluated with a 1:1 binding model using the Biacore 8K Evaluation Software version 1.1.1.7442 (GE Healthcare). Exemplary sensorgrams for the interaction are shown in FIG. 7 (human KLB) and 8 (monkey KLB), as well as in Table G.

[2] = Size-exclusion chromatography (SEC); type: physicochemical
Method: Analytical SEC was performed using a BioSECcurity instrument (PSS Polymer) with an AdvanceBio 300 column (4.6 mm×300 mm) and AdvanceBio 300 guard column (Agilent Technologies) at room temperature. The analysis was run at a flow rate of 0.5 mL/min using 2× concentrated D-PBS buffer (Thermo Fisher Scientific) with detection at 280 nm. 10 μL of protein sample (at 1 mg/mL) were applied onto the column. Data evaluation was performed using WinGPC software v8.1 (PSS Polymer). For estimation of the molecular weight, the SEC column was calibrated with the AdvanceBio SEC 300 Å Protein Standard (Agilent Technologies).

[3] = Hydrophobic interaction chromatography (HIC); type: physicochemical
Method: The analysis was run at a flow rate of 1 mL/min with detection at 280 nm. 5 μg of undiluted protein sample were applied onto the column. Gradient elution was from 15% B to 85% B in 7 min followed by 1 min to 100% B, then 1 min to 15% B and then 3 minutes equilibration at 15% B. Buffer A was composed of 1.5 mol/L ammonium sulfate, 25 mmol/L sodium phosphate pH 7.0. Buffer B was composed of 25 mmol/L sodium phosphate pH 7.0. Data evaluation was performed either using LabSolutions software v5.85 (Shimadzu) or Chromeleon 7 software (Thermo Fisher Scientific).

[4] = SPR, 1:1 binding model, read-out: KD human KLB

Row | Substance | Homogeneity cGE % Monomer [1] | Kd (human beta-Klotho; [4]) | Kd (human beta-Klotho; read-out: Affinity SPR KD) | SEC % HMW ([2]; pH 5, 40° C., d 21) | SEC % LMW ([2]; pH 5, 40° C., d 21) | SEC % HMW ([2]; pH 5, d 0) | SEC % LMW ([2]; pH 5, d 0) | SEC % HMW ([2]; pH 6, 40° C., d 21) | SEC % LMW ([2]; pH 6, 40° C., d 21) | SEC % HMW ([2]; pH 6, d 0) | SEC % LMW ([2]; pH 6, d 0) | SEC % HMW ([2]; pH 8, 40° C., d 21) | SEC % LMW ([2]; pH 8, 40° C., d 21) | SEC % HMW ([2]; pH 8, d 0) | SEC % LMW ([2]; pH 8, d 0) | Hydrophobic variance HIC Number of peaks [3] | HIC Number of peaks ([3]; pH 5, 40° C., d 21) | HIC Number of peaks ([3]; pH 5, d 0) | HIC Number of peaks ([3]; pH 6, 40° C., d 21) | HIC Number of peaks ([3]; pH 6, d 0) | also measured
1 | Ab0430: IgG1 NNAS; 16H7 VL (N25S, D49E, D50E, D91E, N93E); 16H7 VH (M34V, I83T, D109E); HC SEQ ID NO: 43, LC SEQ ID NO: 50 | 62% | 286 pM | 290 pM | 1% | 2% | 1% | 0% | 0% | 2% | 1% | 0% | 1% | 4% | 2% | 0% | 1 | 1 | 1 | 1 | 1 | HIC Number of peaks ([3]; pH 8, 40° C., d 21): 1; HIC Number of peaks ([3]; pH 8, d 0): 1
2 | Ab0331: IgG4 PE; 16H7 VL (N25S, D49S, D50E, D91E, N93E); 16H7 VH (M34V, I83T, D109E); HC SEQ ID NO: 38, LC SEQ ID NO: 45 | 77% | 206 pM | 210 pM | 1% | 0% | 1% | 0% | 0% | 0% | 1% | 0% | 1% | 1% | 2% | 0% | 1 | 1 | 1 | 1 | 1 | affinity to human KLB compared to 16H7 (human beta-Klotho): comparable affinity; HIC Number of peaks ([3]; pH 8, 40° C., d 21): 1; HIC Number of peaks ([3]; pH 8, d 0): 1
3 | Ab0428: IgG1 NNAS; 16H7 VL (N25S, D49S, D50E, D91E, N93E); 16H7 VH (M34V, I83T, D109E); HC SEQ ID NO: 41, LC SEQ ID NO: 48 | 71% | 205 pM | 210 pM | 1% | 2% | 2% | 0% | 0% | 2% | 1% | 0% | 1% | 3% | 1% | 0% | 1 | 1 | 1 | 1 | 1 | HIC Number of peaks ([3]; pH 8, 40° C., d 21): 1; HIC Number of peaks ([3]; pH 8, d 0): 1
4 | Ab0351: IgG4 PE; 16H7 VL (N25S, D49E, D50E, D91E, N93E); 16H7 VH (M34V, I83T, D109E); HC SEQ ID NO: 40, LC SEQ ID NO: 47 | 83% | 248 pM | 250 pM | 1% | 0% | 2% | 0% | 1% | 0% | 0% | 0% | 2% | 1% | 1% | 0% | 1 | 1 | 1 | 1 | 1 | affinity to human KLB compared to 16H7 (human beta-Klotho): comparable affinity; HIC Number of peaks ([3]; pH 8, 40° C., d 21): 1; HIC Number of peaks ([3]; pH 8, d 0): 1
5 | Ab0429: IgG1 NNAS; 16H7 VL (N25S, D49S, D50A, D91E, N93E); 16H7 VH (M34V, I83T, D109E); HC SEQ ID NO: 42, LC SEQ ID NO: 49 | 66% | 186 pM | 190 pM | 1% | 2% | 2% | 0% | 0% | 1% | 0% | 0% | 1% | 3% | 2% | 0% | 1 | 1 | 1 | 1 | 1 | HIC Number of peaks ([3]; pH 8, 40° C., d 21): 1; HIC Number of peaks ([3]; pH 8, d 0): 1
6 | Ab0335: IgG4 PE; 16H7 VL (N25S, D49S, D50A, D91E, N93E); 16H7 VH (M34V, I83T, D109E); HC SEQ ID NO: 39, LC SEQ ID NO: 46 | 79% | 158 pM | 160 pM | 0% | 0% | 1% | 0% | 0% | 0% | 1% | 0% | 5% | 1% | 2% | 0% | 1 | 1 | 1 | 1 | 1 | affinity to human KLB compared to 16H7 (human beta-Klotho): comparable affinity; HIC Number of peaks ([3]; pH 8, 40° C., d 21): 1; HIC Number of peaks ([3]; pH 8, d 0): 1
